Patent US20130196383A1, “Method of Producing Dicer” (published 2013)

Columns and labels:
[1] = biological target: T1, hDcr-CΔRBD fragment of human Dicer (Homo sapiens, UniProt Q9UPY3 SEQ:1235-1844); experiment: filter; out of detectable limit; conditions: tags: expressed from pHMGWA-His6-MBP vector, E. coli
T1 chain: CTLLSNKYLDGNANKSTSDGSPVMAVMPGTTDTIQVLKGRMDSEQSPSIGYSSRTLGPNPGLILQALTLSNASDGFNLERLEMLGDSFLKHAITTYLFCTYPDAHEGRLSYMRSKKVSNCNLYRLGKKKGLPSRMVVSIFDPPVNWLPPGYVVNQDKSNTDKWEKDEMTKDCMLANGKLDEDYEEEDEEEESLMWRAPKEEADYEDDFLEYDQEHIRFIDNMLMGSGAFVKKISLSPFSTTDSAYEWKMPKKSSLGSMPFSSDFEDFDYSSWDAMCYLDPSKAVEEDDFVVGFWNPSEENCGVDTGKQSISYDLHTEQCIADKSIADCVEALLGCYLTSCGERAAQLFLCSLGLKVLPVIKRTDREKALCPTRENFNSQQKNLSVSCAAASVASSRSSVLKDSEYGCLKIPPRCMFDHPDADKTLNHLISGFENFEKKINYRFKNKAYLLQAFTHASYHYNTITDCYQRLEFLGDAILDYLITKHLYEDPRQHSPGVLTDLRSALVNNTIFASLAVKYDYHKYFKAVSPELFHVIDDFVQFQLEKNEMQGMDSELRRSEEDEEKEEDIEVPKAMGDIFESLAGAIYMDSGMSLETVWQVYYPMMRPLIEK
Experimental: (§1) Filter binding assays of hDcr and different hDcr fragments were performed in the same way as previously described (7). Briefly, serial dilutions of hDcr protein were incubated in a buffer containing 20 mM Tris-HCl (pH 7.5), 25 mM NaCl, 5 mM EDTA, 1 mM dithiothreitol (DTT), 1% glycerol and ˜0.5-1 nM (1500 CPM) of 5′-end ³²P-labeled duplex RNA substrate (one strand was labeled) at room temperature for 60 min in a 30 μl of total volume. Following incubation, a 25 μl aliquot of each reaction was applied to a dot-blot apparatus equipped with three membranes: Tuffryn, Protran and Nytran (from top to bottom). After drying, the bound (on Protran) or free (on Nytran) RNAs were quantified by a Phosphorimager (GE Healthcare). Percent bound RNA, calculated as the ratio of radioactivity detected on the Protran membrane over the total input radioactivity, was plotted as a function of protein concentration. Kd was determined by global fitting to the equation: kobsd=(kₘₐₓ[…]) (Kd+[Dicer])−1, where kobsd is the observed rate constant at a given protein concentration, kₘₐₓ is the maximal rate constant with saturating protein, and Kd is the protein concentration that provides half the maximal rate. Curve fitting was conducted with KaleidaGraph (Synergy Software, Reading, Pa.).
To establish the relationship between cleavage activity and substrate binding, nitrocellulose filter-binding assays were performed with three kinds of RNAs under non-cleavage conditions: substrate dsRNA ([…]), Dicer product-mimic dsRNA (19-bp) and a pre-miRNA (pre-hlet-7a-1).

[2] = biological target: T2, hDcr-C (RNase IIIa/IIIb-dsRBD) fragment of human Dicer (Homo sapiens, UniProt Q9UPY3 SEQ:1235-1922); experiment: filter; out of detectable limit; almost no binding; conditions: tags: expressed from pHMGWA-His6-MBP vector, E. coli; label: 5'-32P; hairpin pre-miRNA, 73 nt
T2 chain: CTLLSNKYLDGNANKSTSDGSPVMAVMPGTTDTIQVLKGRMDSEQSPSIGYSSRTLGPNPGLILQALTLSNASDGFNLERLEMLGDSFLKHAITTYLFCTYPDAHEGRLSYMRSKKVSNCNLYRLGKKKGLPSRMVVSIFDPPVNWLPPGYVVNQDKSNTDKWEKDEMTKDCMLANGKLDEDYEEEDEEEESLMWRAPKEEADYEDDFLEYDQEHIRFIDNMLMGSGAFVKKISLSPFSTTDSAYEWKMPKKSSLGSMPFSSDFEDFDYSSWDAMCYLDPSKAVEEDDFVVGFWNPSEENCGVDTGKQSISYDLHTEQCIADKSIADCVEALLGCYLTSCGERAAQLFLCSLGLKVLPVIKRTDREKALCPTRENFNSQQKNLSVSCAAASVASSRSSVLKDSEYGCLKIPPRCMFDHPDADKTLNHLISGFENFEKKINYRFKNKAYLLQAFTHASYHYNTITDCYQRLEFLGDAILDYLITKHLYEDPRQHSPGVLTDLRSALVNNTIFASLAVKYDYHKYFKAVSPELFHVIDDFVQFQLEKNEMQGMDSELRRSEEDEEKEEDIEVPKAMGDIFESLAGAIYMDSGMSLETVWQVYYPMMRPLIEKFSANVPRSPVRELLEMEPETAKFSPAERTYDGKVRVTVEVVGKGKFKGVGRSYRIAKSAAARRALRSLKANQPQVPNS
Experimental: as §1, with “Pa.). […]” for “Pa.).”

[3] = biological target: T3, DP, tandem DUF283-PAZ domains of human Dicer (605-1068), bacterially expressed
T3 chain: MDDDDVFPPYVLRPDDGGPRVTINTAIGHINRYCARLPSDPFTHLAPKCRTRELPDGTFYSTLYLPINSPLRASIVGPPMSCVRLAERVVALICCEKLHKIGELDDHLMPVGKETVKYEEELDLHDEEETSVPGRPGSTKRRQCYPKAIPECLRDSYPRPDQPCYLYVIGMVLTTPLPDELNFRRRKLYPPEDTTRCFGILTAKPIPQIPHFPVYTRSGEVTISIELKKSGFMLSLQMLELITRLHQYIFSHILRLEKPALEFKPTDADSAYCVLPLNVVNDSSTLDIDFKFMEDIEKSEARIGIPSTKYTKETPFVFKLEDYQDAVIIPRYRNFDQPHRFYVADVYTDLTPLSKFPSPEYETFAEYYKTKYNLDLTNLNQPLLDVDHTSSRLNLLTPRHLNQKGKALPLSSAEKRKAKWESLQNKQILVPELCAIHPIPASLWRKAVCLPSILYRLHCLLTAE

[4] = biological target: T4, hDcr-N, N-terminal fragment of human Dicer (1-1068; ATPase/hel, DUF283 and PAZ domains), co-expressed in Sf9 … (human, UniProt Q9UPY3 1-1068); experiment: co-expression in Sf9 cells, co-purification
T4 construct: Co-expressed with hDcr-C in baculovirus-infected Sf9 cells; It could not be expressed alone
T4 sequence: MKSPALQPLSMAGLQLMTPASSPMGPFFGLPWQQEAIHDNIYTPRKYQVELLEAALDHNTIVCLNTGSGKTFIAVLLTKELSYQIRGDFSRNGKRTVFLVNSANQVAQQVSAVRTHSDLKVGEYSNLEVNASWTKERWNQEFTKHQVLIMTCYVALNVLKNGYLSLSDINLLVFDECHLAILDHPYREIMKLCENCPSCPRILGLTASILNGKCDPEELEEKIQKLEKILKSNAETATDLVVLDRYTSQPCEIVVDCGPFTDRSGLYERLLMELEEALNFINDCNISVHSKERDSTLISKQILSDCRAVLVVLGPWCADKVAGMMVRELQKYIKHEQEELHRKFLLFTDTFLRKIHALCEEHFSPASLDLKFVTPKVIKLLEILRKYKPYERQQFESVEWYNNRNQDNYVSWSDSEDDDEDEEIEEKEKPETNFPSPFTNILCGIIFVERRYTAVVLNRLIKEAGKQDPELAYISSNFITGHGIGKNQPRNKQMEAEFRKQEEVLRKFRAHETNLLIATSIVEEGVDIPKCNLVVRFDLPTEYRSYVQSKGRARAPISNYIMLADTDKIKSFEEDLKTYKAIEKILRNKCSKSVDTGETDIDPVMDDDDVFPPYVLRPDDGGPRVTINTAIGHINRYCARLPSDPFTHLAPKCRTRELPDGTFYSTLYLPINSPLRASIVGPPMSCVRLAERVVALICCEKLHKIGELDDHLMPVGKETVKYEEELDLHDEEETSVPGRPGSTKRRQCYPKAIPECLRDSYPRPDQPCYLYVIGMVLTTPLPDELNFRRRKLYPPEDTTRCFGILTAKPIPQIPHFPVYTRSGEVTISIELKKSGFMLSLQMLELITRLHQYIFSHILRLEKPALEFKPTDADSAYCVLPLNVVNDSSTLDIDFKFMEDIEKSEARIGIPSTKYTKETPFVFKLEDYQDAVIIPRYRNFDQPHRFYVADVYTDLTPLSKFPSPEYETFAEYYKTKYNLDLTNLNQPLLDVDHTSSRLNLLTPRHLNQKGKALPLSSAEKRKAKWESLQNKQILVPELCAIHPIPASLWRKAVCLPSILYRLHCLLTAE

B1: 37ab (dsRNA)
RNA 1: UGAGGUAGUAGGUUGUAUAGUUUGAAAGUUCACGAUU
RNA 2: UCGUGAACUUUCAAACUAUACAACCUACUACCUCAUU
binding result ([1]; label: 5'-32P on one strand (37a), perfectly matched 35-bp duplex): no binding

B2: pre-hlet-7a-1 (ssRNA)
RNA: UGAGGUAGUAGGUUGUAUAGUUUUAGGGUCACACCCACCACUGGGAGAUAACUAUACAAUCUACUGUCUUACC
binding result ([1]; label: 5'-32P, hairpin pre-miRNA, 73 nt): no binding
binding result [2]: no binding

B3: hDcr-C, C-terminal fragment of human Dicer (1235-1922; two RNase III domains and C-terminal dsRBD), co-expressed in Sf9 cells (enzyme)
chain: T2 chain
RNA cleavage assay (37ab dsRNA), size pattern of the products [3]: addition of the DP polypeptide to the hDcr-C cleavage reaction led to RNA products similar to those produced by full-length Dicer
binding result [4]: binds
